Experimental data as given in patent publication US20250154264A1 (GENOVAC ANTIBODY DISCOVERY, published 2025).

T1: human ALK5 on transiently transfected cells (human, UniProt P36897 34-503)
T1 construct: whole, on cells; also called ALK5 of human
T1 sequence (looked up): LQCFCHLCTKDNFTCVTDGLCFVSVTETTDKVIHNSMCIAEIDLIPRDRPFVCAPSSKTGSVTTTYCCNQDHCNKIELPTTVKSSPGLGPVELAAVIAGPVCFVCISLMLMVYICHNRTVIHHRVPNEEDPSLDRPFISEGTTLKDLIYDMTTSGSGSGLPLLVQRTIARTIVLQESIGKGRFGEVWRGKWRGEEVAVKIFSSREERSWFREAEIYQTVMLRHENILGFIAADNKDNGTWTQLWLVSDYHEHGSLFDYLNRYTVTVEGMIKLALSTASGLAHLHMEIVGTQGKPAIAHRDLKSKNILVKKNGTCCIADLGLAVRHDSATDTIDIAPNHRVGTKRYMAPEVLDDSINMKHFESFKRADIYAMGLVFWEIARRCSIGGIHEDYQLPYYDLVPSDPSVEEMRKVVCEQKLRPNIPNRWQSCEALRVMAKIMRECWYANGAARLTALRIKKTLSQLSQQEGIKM

T2: murine ALK1, N-terminally tagged, on transiently transfected cells (mouse, UniProt Q61288 23-502)
T2 construct: whole, on cells; also called mouse ALK1; murine orthologue; not shown: N-terminal tag used for the expression control
T2 sequence (looked up): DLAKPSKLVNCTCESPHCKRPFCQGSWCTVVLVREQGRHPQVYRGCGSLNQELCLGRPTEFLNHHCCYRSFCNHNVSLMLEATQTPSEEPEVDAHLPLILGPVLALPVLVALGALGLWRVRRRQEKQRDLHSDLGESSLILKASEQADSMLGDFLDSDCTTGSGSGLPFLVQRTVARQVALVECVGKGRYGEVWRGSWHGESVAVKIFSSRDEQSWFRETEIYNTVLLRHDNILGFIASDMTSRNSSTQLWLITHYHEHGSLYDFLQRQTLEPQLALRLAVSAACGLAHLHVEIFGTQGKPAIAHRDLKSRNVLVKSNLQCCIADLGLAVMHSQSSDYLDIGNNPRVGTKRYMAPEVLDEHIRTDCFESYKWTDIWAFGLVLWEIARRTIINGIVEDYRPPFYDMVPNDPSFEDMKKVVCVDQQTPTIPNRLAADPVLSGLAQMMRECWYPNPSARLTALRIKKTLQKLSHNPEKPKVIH


What was measured:
[1] = molecular target: T1, human ALK5 on transiently transfected …; assay: flow cytometry, hybridoma supernatant on transiently transfected cells (Example 3)
Protocol: (§1) Flow cytometry was used to measure fluorescence intensity produced by fluorescent-labeled secondary antibodies detecting primary anti-ALK1 antibodies that bind to specific cell-associated ALK5 molecules. More precisely hybridoma supernatants containing primary antibodies were tested for binding to transiently transfected cells expressing ALK5 of human and mouse by flow cytometry. The signals were generated by use of secondary, PE-labelled goat anti-rat antibodies. In addition to testing the supernatants on non-transfected cells, ALK5 of human and mouse-transfected cells were incubated only with the secondary antibody (without supernatants) as a negative control.

[2] = molecular target: T3, human ALK1 (Activin A receptor like type 1), N-terminally tagged, on transiently transfected cells (human, UniProt P37023 22-503); assay: flow cytometry, hybridoma supernatant on transiently transfected cells, PE goat anti-rat secondary
T3 construct: also called ALK1 of human; ACVRL1; not shown: N-terminal tag used for the expression control
T3 sequence (P37023 22-503): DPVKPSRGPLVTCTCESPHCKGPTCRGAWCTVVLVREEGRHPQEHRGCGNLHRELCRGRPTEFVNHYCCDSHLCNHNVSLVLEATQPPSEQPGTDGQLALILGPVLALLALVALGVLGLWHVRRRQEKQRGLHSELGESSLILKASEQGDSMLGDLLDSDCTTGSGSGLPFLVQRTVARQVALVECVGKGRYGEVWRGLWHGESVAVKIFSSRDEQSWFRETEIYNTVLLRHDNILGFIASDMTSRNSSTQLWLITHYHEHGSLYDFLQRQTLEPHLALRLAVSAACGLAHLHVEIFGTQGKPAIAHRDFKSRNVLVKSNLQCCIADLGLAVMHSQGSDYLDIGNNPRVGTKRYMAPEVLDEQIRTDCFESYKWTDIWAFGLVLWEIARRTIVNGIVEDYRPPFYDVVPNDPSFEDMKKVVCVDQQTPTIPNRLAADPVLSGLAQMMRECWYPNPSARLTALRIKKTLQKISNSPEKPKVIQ
Protocol: as §1, with “Various isolated antibodies were assessed for the ability to bind ALK1 from mouse (murine), human, and cyno monkey. Flow” for “Flow”, “ALK1” for “ALK5”, “human, cyno monkey” for “human”

[3] = molecular target: T2, murine ALK1, N-terminally tagged, on …; assay: as above
Protocol: as §1, with “Various isolated antibodies were assessed for the ability to bind ALK1 from mouse (murine), human, and cyno monkey. Flow” for “Flow”, “ALK1” for “ALK5”, “human, cyno monkey” for “human”

Row | binding result [1] | binding result [2] | binding result [3] | Binder
1 | no binding | binds | binds | BVO-A-9F7-A10 (antibody, V domains shown, Tested as OmniRat hybridoma supernatant and detected with goat anti-rat secondary antibody; also called BVO-A-9E7-A10) VH: QVQLQQWGAGLLKPSETLSLTCAVYGGSFSSSYWNWIRQPPGKGLEWIGEVNHSGSTNYNPSLKSRVTISLDTSKNQFSLKLSSVTAADTAVYYCARSPRSGRIVGAVFDYWGQGTLVTVSS VL: SYVLTQPPSVSVAPGQTARITCGGNNIGPKSVHWYQQKPGQAPVLVVYDDSDRPSGIPERFSGSNSGNTATLTISRVEAGDEADYYCQVWDSSNDHVVFGGGTKLTVL
2 | no binding | binds | binds | BVO-B-1H7-E3 (antibody, V domains shown, Tested as OmniRat hybridoma supernatant and detected with goat anti-rat secondary antibody) VH: QLQLQESGPGLVKPSETLSLTCTVSGGSISSRSYYWGWIRQPPGKGLEWIGNIYYSGSAFYNPSLKSRVTISVDTSKNQFSLKLSSVTAADTAVYYCARWDNWDVGAFDIWGQGTMVTVSS VL: QSALTQPPSASGSPGQSVTISCTGTSSDVGGYNYVSWYQQHPGKAPKLMIYEVSKRPSGVPDRFSGSKSGNTASLTVSGLQAEDEADYYCTSFAGSNNWVFGGGTKLTVL
